Data on three compounds can be found in patent US20230131339A1, “EPI-X4 BASED PEPTIDES AND DERIVATIVES THEREOF” (Universitaet Ulm, priority 2020, published 2023).

Where a SMILES comes first, the peptide text is derived from it. Where no end group is shown, it is not given here. [ ]: non-standard residue; d: D form. The star is where a group is joined. DOTA = O=C(O)CN1CCN(CC(=O)O)CCN(CC(=O)*)CCN(CC(=O)O)CC1

Data set [1] can be described thus: Small animal SPECT/CT and PET/CT imaging (total body distribution). The settings on record: ^68Ga-labeled, tail vein, 1 h p.i. The format is in vivo, Balb/c mice. Here is the method: SPECT/CT: The total body distribution of [^177Lu]Lu-Pentixather was compared to [^177Lu]Lu-DOTA-K-JM #173 and [^177Lu]Lu-DOTA-K-JM #235. Healthy Balb/c mice were injected into the tail vein with 15-20 MBq ([…]) of ^177Lu-labeled complexes and SPECT/CT images was acquired 4 h post injection (p.i.). For acquiring the images, mice were euthanized by CO2 inhalation after 4 hours, measured in a suitable dose calibrator and imaged supine, head first, using a SPECT/CT system dedicated to imaging small animals (NanoSPECT/CTTM Bioscan Inc.). The images were reconstructed using proprietary HiSPECT iterative reconstruction and fused with CT images using proprietary InVivoScope (Bioscan) software.
PET/CT: PET/CT imaging was performed to determine and compare the total body distribution of [^68Ga]Ga-Pentixather with [^68Ga]Ga-DOTA-K-JM #173. Healthy Balb/c mice were injected into the tail vein with 5-6 MBq ([…]) of ^68Ga-labeled complexes and PET/CT images were acquired 1 h p.i. For acquiring the images, mice were euthanized by CO2 inhalation after 1 h, measured in a suitable dose calibrator and imaged supine, head first, using a PET/CT system dedicated to imaging small animals (Molecubes). The images were reconstructed using the Molecubes software and fused with CT images using Vivo Quant. […]

For data set [2], the target named is T1, CXCR4 (Homo sapiens, UniProt P61073).
T1 construct: endogenous in cells; host or cells: SupT1 cells
T1 sequence (P61073 whole entry, looked up): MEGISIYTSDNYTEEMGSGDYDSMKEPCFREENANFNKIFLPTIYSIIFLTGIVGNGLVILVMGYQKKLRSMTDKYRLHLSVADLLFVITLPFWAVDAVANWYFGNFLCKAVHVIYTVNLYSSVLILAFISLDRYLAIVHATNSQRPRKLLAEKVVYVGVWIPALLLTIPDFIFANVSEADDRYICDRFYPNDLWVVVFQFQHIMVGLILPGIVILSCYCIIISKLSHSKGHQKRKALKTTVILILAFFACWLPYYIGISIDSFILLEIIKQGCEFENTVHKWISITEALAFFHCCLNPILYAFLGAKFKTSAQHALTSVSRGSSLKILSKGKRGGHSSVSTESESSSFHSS
As to the kind of experiment: 12G5-assay | IC50 (nM). The source says:
(§1) Table printed on a drawing sheet, Figure 2
Title: A Truncated Palmitoylated-JM#21
Head of the field: 12G5-assay | IC50 (nM)
First copying reader's note: The table is the legend of the plot in panel A; the first column also carries the plot symbols, which are not copied.
Where the first naming reader finds the target: passage: Values determined by the competition assay represent the potency of a compound to compete with an antibody that specifically binds to the binding pocket (ECL2) of CXCR4

The target in data set [3] is T1, CXCR4. As to the kind of experiment: 12G5-assay IC50 (nM).
From the text: as §1
Title: B Truncated Palmitoylated-JM#21 N-terminally modified
Head of the field: 12G5-assay IC50 (nM)
First copying reader's note: The table doubles as the legend of the antibody competition plot beside it; the plot symbols before the names are not copied.
Where the first naming reader finds the target: passage: compete with an antibody that specifically binds to the binding pocket (ECL2) of CXCR4

For data set [4] the following is noted: mouse, in vivo, iv.
From the text: To do so, the labeled conjugate was intravenously injected into the tail vein of immunodeficient mice, followed by localization and quantification of radioactivity within the body using positron emission tomography (PET).

For the compound `CC[C@@H](C)[C@@H](N)C(=O)N[C@@H](CC(C)C)C(=O)N[C@@H](CCCNC(=N)N)C(=O)N[C@@H](Cc1c[nH]c2ccccc12)C(=O)N[C@@H](CO)C(=O)N[C@@H](CCCNC(=N)N)C(=O)N[C@@H](CCCCN)C(=O)N[C@@H](CCCCNC(=O)CN1CCN(CC(=O)O)CCN(CC(=O)O)CCN(CC(=O)O)CC1)C(N)=O` [[^68Ga]Ga-DOTA-K-JM#173] [metal not drawn] (H-[dI]LRWSRKK(DOTA)-NH2), the “total body distribution, PET/CT” value in data set [1] is on record as “no specific uptake in any organ in vivo”.
For orientation: IC50 means the concentration at which inhibition is half-maximal. A lower IC50 goes with inhibition by little substance. On to `CC(C)C[C@H](NC(=O)[C@@H](NC(=O)[C@@H]1CCCN1C(=O)[C@@H](NC(=O)[C@H](CO)NC(=O)[C@@H](NC(=O)[C@H](CCC(N)=O)NC(=O)[C@@H]1CCCN1C(=O)[C@@H](NC(=O)[C@H](CCCCN)NC(=O)[C@H](CCCCN)NC(=O)[C@@H](NC(=O)[C@H](Cc1ccc(O)cc1)NC(=O)[C@H](CCCNC(=N)N)NC(=O)[C@@H](NC(=O)[C@@H](N)CC(C)C)C(C)C)[C@@H](C)O)C(C)C)C(C)C)[C@@H](C)O)[C@@H](C)O)C(=O)O` [EPIX4] (H-LVRYTKKVPQVSTPTL-OH; N-terminus and C-terminus assumed), for which the IC50 on CXCR4 [2] came out at 1780 nM; against CXCR4 [3], 1460 nM.
Turning to “C-deferoxamine linked JM #122: JM #122 with deferoxamine conjugated via an additional C-terminal cysteine as (succinimido-propionyl-desferrioxamine) acetate (ILRWSRKLPSVS-{C(succinimido-propionyl-desferrioxamine)}; also: acetate salt)”, in data set [4], the “biodistribution by PET” value is “rapid (5 min post injection) absorption of the peptide by the kidneys and subsequent release into the bladder”.
